Measurements published in patent US8586031B2, “Method of reusing rinse water from disinfecting packages with peracid and catalase” (Ecolab USA Inc., priority 2008, dated 2013).

Experiment: Decomposition of hydrogen peroxide by catalase in about 20,000 ppm acetic acid and 500-800 ppm hydrogen peroxide at 60° C., thiosulfate titration
Assay type: biochemical
Procedure: Example 1 compared the ability to various catalase enzymes at 100 ppm concentration to decompose hydrogen peroxide. For this example, an aliquot of a stock solution of catalase was added to 1000 ml of a solution containing about 20,000 ppm acetic acid and 500-800 ppm of hydrogen peroxide at 60° C. The catalase addition was done at a rate that produced an enzyme concentration of 100 ppm in the 1000 ml solution The concentration of the hydrogen peroxide was measured at time zero and at 5, 10, and 15 minutes. The concentration of hydrogen peroxide was measured via titration of a 10 ml aliquot of solution including 1-2 ml of […], 1-2 ml concentrated sulfuric acid, 4-5 drops of an oxygen catalyst (saturated solution of Ammonium Molybdate) and a few drops of a starch solution. The titrant was 0.1 N Sodium thio sulfate. The solution was titrated to a colorless endpoint and the peroxide concentration was calculated via the following calculation:
Example 2 compared the ability to various catalase enzymes at 20 ppm concentration to decompose hydrogen peroxide. For this example, 20 ppm of catalase enzyme was diluted in 20,000 ppm acetic acid and 500-800 ppm of hydrogen peroxide at 60° C. The concentration of the hydrogen peroxide was measured at time zero and at 5, 10, and 15 minutes in the same manner as outlined in example 1.

B1: Bovine Catalase: crystaline bovine liver catalase, Sigma Aldrich (protein, UniProt P00432 2-527, looked up)
Catalase: ADNRDPASDQMKHWKEQRAAQKPDVLTTGGGNPVGDKLNSLTVGPRGPLLVQDVVFTDEMAHFDRERIPERVVHAKGAGAFGYFEVTHDITRYSKAKVFEHIGKRTPIAVRFSTVAGESGSADTVRDPRGFAVKFYTEDGNWDLVGNNTPIFFIRDALLFPSFIHSQKRNPQTHLKDPDMVWDFWSLRPESLHQVSFLFSDRGIPDGHRHMNGYGSHTFKLVNANGEAVYCKFHYKTDQGIKNLSVEDAARLAHEDPDYGLRDLFNAIATGNYPSWTLYIQVMTFSEAEIFPFNPFDLTKVWPHGDYPLIPVGKLVLNRNPVNYFAEVEQLAFDPSNMPPGIEPSPDKMLQGRLFAYPDTHRHRLGPNYLQIPVNCPYRARVANYQRDGPMCMMDNQGGAPNYYPNSFSAPEHQPSALEHRTHFSGDVQRFNSANDDNVTQVRTFYLKVLNEEQRKRLCENIAGHLKDAQLFIQKKAVKNFSDVHPEYGSRIQALLDKYNEEKPKNAVHTYVQHGSHLSAREKANL
- decrease of the concentration of hydrogen peroxide (20 ppm catalase): did not measurably decrease
- Hydrogen Peroxide Concentration (20 ppm catalase, 0 minutes): 600 ppm
- Hydrogen Peroxide Concentration (20 ppm catalase, 5 minutes): 600 ppm
- Hydrogen Peroxide Concentration (20 ppm catalase, 10 minutes): 600 ppm
- Hydrogen Peroxide Concentration (20 ppm catalase, 15 minutes): 600 ppm
- decreased the concentration of hydrogen peroxide by (100 ppm catalase, 0 to 15 minutes): 28.9 ppm
- Hydrogen Peroxide Concentration (100 ppm catalase, 0 minutes): 581.4 ppm
- Hydrogen Peroxide Concentration (100 ppm catalase, 5 minutes): 564.4 ppm
- Hydrogen Peroxide Concentration (100 ppm catalase, 10 minutes): 561 ppm
- Hydrogen Peroxide Concentration (100 ppm catalase, 15 minutes): 552.5 ppm
